# Data from article PMC314469, “Protein Interaction Networks by Proteome Peptide Scanning” (PLoS Biology, 2004).
# T1: Boi1 SH3 (BOI1_YEAST), P38041
# T1 chain: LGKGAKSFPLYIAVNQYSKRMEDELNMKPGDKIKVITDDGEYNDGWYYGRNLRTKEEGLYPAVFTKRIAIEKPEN
# T2: Boi2 SH3 (BOI2_YEAST), P39969
# T2 chain: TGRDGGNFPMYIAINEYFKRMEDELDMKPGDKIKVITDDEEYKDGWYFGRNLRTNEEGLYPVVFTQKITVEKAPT
# T3: Myo5 SH3 (MYO5_YEAST), Q04439
# T3 chain: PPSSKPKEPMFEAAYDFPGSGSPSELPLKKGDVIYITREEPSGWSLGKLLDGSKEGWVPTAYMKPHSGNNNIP
# T4: Rvs167 SH3 (RV167_YEAST), P39743
# T4 chain: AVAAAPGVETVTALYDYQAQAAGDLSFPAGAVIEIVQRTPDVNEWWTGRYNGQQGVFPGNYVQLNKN
# T5: Yfr024 SH3 (LSB3_YEAST), P43603
# T5 chain: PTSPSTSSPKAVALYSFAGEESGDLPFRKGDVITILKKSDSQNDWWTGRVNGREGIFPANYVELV
# T6: Yhr016c SH3 (YSC84_YEAST), P32793
# T6 chain: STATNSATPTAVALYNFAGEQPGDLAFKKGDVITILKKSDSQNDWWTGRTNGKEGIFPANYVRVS
# Columns and labels:
# Assay in all cases: SPOT array
# [1] = target: T1, Boi1 SH3 (BOI1_YEAST), P38041
# [2] = target: T2, Boi2 SH3 (BOI2_YEAST), P39969
# [3] = target: T3, Myo5 SH3 (MYO5_YEAST), Q04439
# [4] = target: T4, Rvs167 SH3 (RV167_YEAST), P39743
# [5] = target: Sho1 SH3 (SHO1_YEAST), P40073
# [6] = target: T5, Yfr024 SH3 (LSB3_YEAST), P43603
# [7] = target: T6, Yhr016c SH3 (YSC84_YEAST), P32793
# Sho1 SH3 (SHO1_YEAST), P40073, sequence (P40073 295-366): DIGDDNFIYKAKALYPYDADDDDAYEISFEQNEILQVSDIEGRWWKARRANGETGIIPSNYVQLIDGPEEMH
"normalised SPOT signal, Boehringer light units (BLU); mean over the file's lines of this peptide [1]","normalised SPOT signal, Boehringer light units (BLU); mean over the file's lines of this peptide [2]","normalised SPOT signal, Boehringer light units (BLU); mean over the file's lines of this peptide [3]","normalised SPOT signal, Boehringer light units (BLU); mean over the file's lines of this peptide [4]","normalised SPOT signal, Boehringer light units (BLU); mean over the file's lines of this peptide [5]","normalised SPOT signal, Boehringer light units (BLU); mean over the file's lines of this peptide [6]","normalised SPOT signal, Boehringer light units (BLU); mean over the file's lines of this peptide [7]",Binder
48.1,10.5,136,33.4,24.1,202,42.5,EKNARGIPQAPFIE [YGR078C 9-22]
51.8,7.3,51.8,0,31.1,0,6,EIPSKDHPYDPEKD [YGR020C 93-106]
57.3,1.6,180,53.1,70.4,0,0,EGTTKVDPIIPVPE [YJR122W 96-109]
62.1,12.1,143,41.8,66.3,0,1.6,EKYGKDQPESPVPE [YMR285C 368-381]
22.6,17.9,139,19.4,53.3,-0,8.8,EKEAKSEPQQPEDN [YML010W 68-81]
86.2,33.2,161,24.5,27.9,41.1,17.8,ELDIKQGPVRPFIV [YDL095W 18-31]
64.2,20.2,180,72.2,44.6,31.6,39.7,EKESRHYPIKPPSP [YMR147W 121-134]
1430,26.5,78.8,83.5,34.9,7.3,49.9,EFQSKSSPVPPASE [YDR008C 96-109]
26.9,8.9,172,116,22,126,58.7,EIAKRLQPGSPVLG [YHR047C 776-789]
268,0,79.8,29.4,43.5,9.9,34.5,EFTTREGPHQPIGN [YDR123C 192-205]
5.1,20.6,108,67.9,20.2,8.7,-0,EIKDRDQPAVPPSP [YOL047C 317-330]
14900,165,141,393,41.4,2220,90.9,EGRSRLFPHSPLGR [YGL122C 259-272]
0,19.1,206,46.5,36.8,61.9,34.6,EKLIKITPDTPFGF [YOR340C 102-115]
46.3,13.1,208,41.1,61.7,0,28.2,EKELKEGPSSPASI [YJL076W 376-389]
744,29.7,364,112,54.5,824,55.1,EHLQKERPKPPNKG [YOR233W 329-342]
17400,15.1,90,66.3,75.6,48.5,67.9,EKVFRGDPEHPAIS [YJR010W 130-143]
